Data as given in article PMC7870846, “Incorporation of sensing modalities into de novo designed fluorescence-activating proteins” (Nature Communications, 2021).
Positions count from the first letter of the chain named. Numbers in names are those of the source.

B1: EF1p2_mFAP2b (K101A): K101A lysine-to-alanine substitution in EF1p2_mFAP2b (protein)
chain: SRAAQLLPGTWQVTMTNEDGQTSQGQWHFQPRSPYTMDIVAQGTISDGRPIVGYGKATVKTPDTLDIDITYPSLGNIKAQGQITMDSPTQFKWDAHYKGDADGDGYISAAEAAAQGLTGTLQRQE
B2: EF1p_mFAP2b: positively allosteric Ca2+-responsive mFAP, one EF-hand motif (protein)
chain: B1 chain with A101K, G116I

Key:
[1] = Ca2+-responsive mFAP Ca2+ titrations; format: binding; settings: in the presence of excess DFHBI
Procedure: In measuring Ca^2+ affinity of mFAPs on a Synergy Neo2 hybrid multi-mode reader (Fig. 4d, e, f and Supplementary Figs. 10c, f, i, 11c, f, i, 13c, f, i, 16b), large-scale purified proteins[49] were aliquoted in technical triplicate to a final concentration of 500 nM with 5.00 μM DFHBI in eleven serial dilutions ( 10 dilution factor) of CaCl2 (Sigma Aldrich) starting from either 900 mM or 90.0 mM CaCl2 (diluted using high-salt Tev cleavage buffer) including a twelfth condition without CaCl2. Final volumes were 200 μL in flat bottom, black polystyrene, non-binding surface 96-well microplates (Corning 3650). Fluorescence endpoints were measured using excitation wavelength λex = 484 nm and emission wavelength λem = 508 nm. Background fluorescence endpoints of wells with identical chromophore and CaCl2 concentrations lacking protein (substituted for equivalent volumes of high-salt Tev cleavage buffer) were measured in technical triplicate, averaged per condition, and subtracted from protein measurement averages of the same conditions.
For Ca^2+ titrations of EF4n_mFAP2a and EF4n_mFAP2b (Supplementary Fig. 13c), a small amount of Chelex 100 sodium form (Sigma Aldrich) was added to purified protein (produced by large-scale protein purification and SEC purification[49]) and nutated at 4 °C overnight. EF4n_mFAP2a was aliquoted in technical triplicate to a final concentration of 8.00 μM with 80.0 μM DFHBI and EF4n_mFAP2b was aliquoted in technical triplicate to a final concentration of 6.25 μM with 43.4 μM DFHBI, in eleven serial dilutions ( 10 dilution factor) of CaCl2 starting from 9.00 mM or 4.00 mM CaCl2 (diluted using high-salt Tev cleavage buffer pre-treated with Chelex 100) including a twelfth condition without CaCl2. Final volumes were 25.0 μL in flat bottom, black polystyrene, non-binding surface 96-well half-area microplates (Corning 3686) or 200 μL in flat bottom, black polystyrene, non-binding surface 96-well microplates (Corning 3650). Fluorescence endpoints were measured for EF4n_mFAP2a using excitation wavelength λex = 478 nm and emission wavelength λem = 520 nm, and for EF4n_mFAP2b using excitation wavelength λex = 484 nm and emission wavelength λem = 508 nm. Background fluorescence endpoints of wells with identical chromophore and CaCl2 concentrations lacking protein (substituted for equivalent volumes of high-salt Tev cleavage buffer) were measured in technical triplicate, averaged per condition, and subtracted from protein measurement averages of the same conditions. For non-linear least squares fitting to obtain Kd values, means were fit to a single-binding site isotherm function where Ca^2+-binding sites were modeled independently with a Hill coefficient of 1.

[2] = Ca2+-responsive mFAP DFHBI titrations; format: binding; settings: in the presence of excess Ca2+ (Kd+)
Procedure: Final volumes were 25.0 μL in flat bottom, black polystyrene, non-binding surface 96-well half-area microplates (Corning 3686) or 200 μL in flat bottom, black polystyrene, non-binding surface 96-well microplates (Corning 3650). Fluorescence endpoints were measured using excitation wavelength λex = 488 nm and emission wavelength λem = 510 nm. Background fluorescence endpoints of wells with identical chromophore concentrations lacking protein (substituted for equivalent volumes of high-salt Tev cleavage buffer) were measured and subtracted from protein measurements prior to normalization.
For DFHBI titrations of EF4n_mFAP2a and EF4n_mFAP2b (Supplementary Fig. 13a, b), a small amount of Chelex 100 sodium form (Sigma Aldrich) was added to purified protein (produced by large-scale protein purification and SEC purification[49]) and nutated at 4 °C overnight. […] Fluorescence endpoints were measured using excitation wavelength λex = 488 nm and emission wavelength λem = 510 nm for EF4n_mFAP2b, and excitation wavelength λex = 478 nm and emission wavelength λem = 520 nm for EF4n_mFAP2a. Background fluorescence endpoints of wells with identical chromophore concentrations lacking protein (substituted for equivalent volumes of Chelex 100 pre-treated high-salt Tev cleavage buffer) were measured and subtracted from protein measurements prior to normalization.

HEK293 cells = assay: HEK293 cell surface-displayed Ca2+ titrations; format: cell-based; settings: Ca2+ from 0 to 10 mM; 7.00 µM DFHBI; extracellular display
Procedure: Plasmid DNAs (Supplementary Data 15 and Supplementary Data 17) were purified in ddH2O for transfections. pGP-CMV-GCaMP6f was a gift from Douglas Kim & GENIE Project (Addgene plasmid #40755; [http://n2t.net/addgene:40755]; RRID: Addgene_40755). Wild-type HEK293 cells (ATCC CRL-1573) were cultured on 24-well plates in DMEM media (4.5 g L^−1 D-glucose, L-glutamine; ThermoFisher #11965-092) supplemented with 10% FBS and 1% Penicillin/Streptomycin in a 5% CO2 atmosphere at 37 °C. Cells were seeded into 24-well plates (ThermoFisher #FB012929) at 100,000 cells well^−1. Twenty-four hours after seeding, cell media was aspirated and replaced with 200 μL of DMEM media. […]
Data analysis: Regions of interest (ROIs) surrounding single cells from three technical replicates were hand-drawn in ImageJ software. For each cellular ROI in each frame the average fluorescence was calculated in ImageJ. In order to perform background subtraction, cellular ROIs were then moved proximal to the original cell to an ROI where there was no fluorescence. Each cellular ROIs average fluorescence had the average background intensity subtracted for each frame. […]

Molecule	reduction of Ca2+ affinity compared with EF1p2_mFAP2b [1]	reduction of DFHBI affinity compared with EF1p2_mFAP2b [2]	fluorescence fold-change (ΔF/F0) (HEK293 cells)
B1	~ 29 fold	~ 21 fold	
B2			~ 0.5
